Target: T1, ephrinB2-Fc (human ephrinB2 residues 1-229, Factor XA cleavage site, human IgG1 residues 100-330) (human, UniProt P52799 28-229)
T1 chain: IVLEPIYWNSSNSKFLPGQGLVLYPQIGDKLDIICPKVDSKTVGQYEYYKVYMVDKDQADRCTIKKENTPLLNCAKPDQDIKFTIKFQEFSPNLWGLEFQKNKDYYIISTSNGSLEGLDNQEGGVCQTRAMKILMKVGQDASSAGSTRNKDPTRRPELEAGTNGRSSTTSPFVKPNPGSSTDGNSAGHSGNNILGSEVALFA
Test: ELISA

B1: Wildtype NiV G ectodomain (Nipah virus attachment glycoprotein G, residues 71-602, N-terminal His6-tag) (domain or fragment)
chain: QNYTRSTDNQAVIKDALQGIQQQIKGLADKIGTEIGPKVSLIDTSSTITIPANIGLLGSKISQSTASINENVNEKCKFTLPPLKIHECNISCPNPLPFREYRPQTEGVSNLVGLPNNICLQKTSNQILKPKLISYTLPVVGQSGTCITDPLLAMDEGYFAYSHLERIGSCSRGVSKQRIIGVGEVLDRGDEVPSLFMTNVWTPPNPNTVYHCSAVYNNEFYYVLCAVSTVGDPILNSTYWSGSLMMTRLAVKPKSNGGGYNQHQLALRSIEKGRYDKVMPYGPSGIKQGDTLYFPAVGFLVRTEFKYNDSNCPITKCQYSKPENCRLSMGIRPNSHYILRSGLLKYNLSDGENPKVVFIEISDQRLSIGSPSKIYDSLGQPVFYQASFSWDTMIKFGDVLTVNPLVVNWRNNTVISRPGQSQCPRFNTCPEICWEGVYNDAFLIDRINWISAGVFLDSNQTAENPVFTVFKDNEILYRAQLASEDTNAQKTITNCFLLKNKIWCISLVEIYDTGDNVIRPKLFAVKIPEQCT
  Ki: 0.038 nM

— publication PMC5626764 (2017)
